Article PMC11775523

System: Exo1 (exonuclease)
Assay: ITC
Details: ITC: 67 mM glycine-KOH, 6.7 mM MgCl2, 1 mM TCEP, 37 C (Methods: 100 uM aptamer into 10 uM Exo1; Results text: 10 uM into 1 uM). Cells: Dulbecco's PBS, 5 mM …

| Sequence | Kd [µM] | Kd (5'-terminal GalNAc-modified base (N1, printed X), position 12 is also printed X, but the text describes only 5' modification, so likely a misprint for T) [µM] |
| --- | --- | --- |
| ATCTAACTGCTGCGCCGCCGGGAAAATACTGTACGGTTAGA [Sgc8 (S01)] | 0.001 | – |
| NATCTAACTGCNGCGCCGCCGGGAAAATACTGTACGGTTAGAT [GS01 (5' GalN-Sgc8)] | – | 662 |
